Laboratory results as given in US20180155413A1 (AstraZeneca / MedImmune, published 2018).
Like-named read-outs stand apart in the source and are kept apart here.

What was measured:
Assay in all cases: cell-based or functional assay
[1] = biological target: HA of B/Hong Kong/330/2001 (victoria) (influenza B virus)
[2] = biological target: HA of B/Florida/4/2006 (yamagata) (influenza B virus)
[3] = biological target: HA of ca B/Ann Arbor/2/94 (yamagata) (influenza B virus)
[4] = biological target: HA of ca B/Georgia/02/98 (yamagata) (influenza B virus)
[5] = biological target: HA of B/Yamagata/16/88 (yamagata) (influenza B virus)
HA of B/Lee/40 [6] = biological target: T1, HA of B/Lee/40 (influenza B virus, UniProt P03460 16-584)
[7] = biological target: HA of B/Ohio/1/2005 (victoria) (influenza B virus)
[8] = biological target: HA of ca B/Johannesburg/5/99 (yamagata) (influenza B virus)
[9] = biological target: HA of B/Yamanashi/166/98 (yamagata) (influenza B virus)
[10] = biological target: HA of B/Florida/4/2006 (yamagata) (influenza B virus); remark: listed apart in the source
[11] = biological target: HA of A/Beijing/262/95 (H1N1) (influenza A virus)
[12] = biological target: HA of A/Solomon Island/3/2006 (H1N1) (influenza A virus)
[13] = biological target: HA of A/Hong Kong/8/68 (H3N2) (influenza A virus)
[14] = biological target: HA of A/Victoria/3/75 (H3N2) (influenza A virus)
[15] = biological target: HA of ca A/Panama/2007/99 (H3N2) (influenza A virus)
[16] = biological target: HA of B/Yamanashi/166/98 (yamagata) (influenza B virus); remark: listed apart in the source
[17] = biological target: HA of B/Phuket/3073/2013 (yamagata) (influenza B virus)
[18] = biological target: HA of A/Hong Kong/2212/2010 (H1N1) (influenza A virus)
[19] = biological target: HA of B/New Jersey/01/2012 (victoria) (influenza B virus)
[20] = biological target: HA of A/New York/39/2012 (H3N2) (influenza A virus)
[21] = biological target: HA of ca B/Beijing/243/97 (victoria) (influenza B virus)
[22] = biological target: HA of B/Hong Kong/330/2001 (victoria) (influenza B virus); remark: listed apart in the source
[23] = biological target: HA of B/Florida/4/2006 (yamagata) (influenza B virus); remark: listed apart in the source
[24] = biological target: HA of B/Arizona/8/2013 (yamagata) (influenza B virus)
[25] = biological target: HA of B/Wisconsin/5/2013 (victoria) (influenza B virus)
[26] = biological target: HA of ca B/Brisbane/60/2008 (victoria) (influenza B virus)
[27] = biological target: HA of B/Texas/2/2013 (victoria) (influenza B virus)
[28] = biological target: HA of B/Malaysia/2506/2004 (victoria) (influenza B virus)
[29] = biological target: HA of ca B/Georgia/02/98 (yamagata) (influenza B virus); remark: listed apart in the source
[30] = biological target: HA of B/Nevada/3/2011 (victoria) (influenza B virus)
[31] = biological target: HA of ca B/Ann Arbor/1/66 (influenza B virus)
[32] = biological target: HA of B/Yamagata/16/88 (yamagata) (influenza B virus); remark: listed apart in the source
HA of B/Lee/40 [33] = biological target: T1, HA of B/Lee/40; remark: listed apart in the source
[34] = biological target: HA of B/Ohio/1/2005 (victoria) (influenza B virus); remark: listed apart in the source
[35] = biological target: HA of ca B/Victoria/504/2000 (yamagata) (influenza B virus)
[36] = biological target: HA of B/Sichuan/379/99 (yamagata) (influenza B virus)
[37] = biological target: HA of ca A/chicken/Hong Kong/G9/97 (H9N2) (influenza A virus)
[38] = biological target: HA of B/Wisconsin/1/2010 (yamagata) (influenza B virus)
[39] = biological target: HA of B/Yamanashi/166/98 (yamagata) (influenza B virus); remark: listed apart in the source
HA of B/Hong Kong/5/72 = HA of B/Hong Kong/5/72 (influenza B virus)
[40] = biological target: HA protein derived from A/Hong Kong/8/68 H3N2, on stably transfected MDCK cells (influenza A virus)
[41] = biological target: HA protein derived from A/South Dakota/6/2007 H1N1, on stably transfected MDCK cells (influenza A virus)

T1 sequence (P03460 16-584 limits assumed): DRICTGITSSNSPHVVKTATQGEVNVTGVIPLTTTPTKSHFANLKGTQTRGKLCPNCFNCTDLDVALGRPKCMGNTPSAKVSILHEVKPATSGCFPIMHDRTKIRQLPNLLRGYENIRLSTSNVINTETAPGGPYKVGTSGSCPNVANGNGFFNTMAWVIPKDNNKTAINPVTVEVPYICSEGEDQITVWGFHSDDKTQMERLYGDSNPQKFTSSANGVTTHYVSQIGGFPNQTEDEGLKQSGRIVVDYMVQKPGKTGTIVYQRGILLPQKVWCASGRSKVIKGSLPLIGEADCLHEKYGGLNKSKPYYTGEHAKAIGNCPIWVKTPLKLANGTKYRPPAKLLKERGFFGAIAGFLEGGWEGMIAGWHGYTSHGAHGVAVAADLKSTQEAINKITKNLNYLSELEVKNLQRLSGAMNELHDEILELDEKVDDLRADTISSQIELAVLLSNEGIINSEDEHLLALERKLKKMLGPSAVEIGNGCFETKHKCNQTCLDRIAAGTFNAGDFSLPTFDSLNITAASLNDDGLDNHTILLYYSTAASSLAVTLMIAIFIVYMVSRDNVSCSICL

B1: GL20/39 BiS4 100/44 (bispecific antibody)
light: DIQMTQSPSSLSASVGDRVTITCRTSQSLSSYTHWYQQKPGKAPKLLIYAASSRGSGVPSRFSGSGSGTDFTLTISSLQPEDFATYYCQQSRTFGQGTKVEIKRTVAAPSVFIFPPSDEQLKSGTASVVCLLNNFYPREAKVQWKVDNALQSGNSQESVTEQDSKDSTYSLSSTLTLSKADYEKHKVYACEVTHQGLSSPVTKSFNRGEC
heavy: not shown
Hemagglutination Inhibition Titer [1]: 244 nM
Hemagglutination Inhibition Titer [2]: 61 nM
Hemagglutination Inhibition Titer [3]: 61 nM
Hemagglutination Inhibition Titer [4]: 122 nM
Hemagglutination Inhibition Titer [5]: 122 nM
Hemagglutination Inhibition Titer (HA of B/Lee/40 [6]): 61 nM
Hemagglutination Inhibition Titer [7]: 244 nM
Hemagglutination Inhibition Titer [8]: 122 nM
Hemagglutination Inhibition Titer [9]: 122 nM
Neutralization (IC50) [10]: 3.6 nM
Neutralization (IC50) [11]: 11.9 nM
Neutralization (IC50) [12]: 4.7 nM
Neutralization (IC50) [13]: 6 nM
Neutralization (IC50) [14]: 15.9 nM
Neutralization (IC50) [15]: 37.3 nM
Neutralization (IC50) [16]: 1.2 nM
Neutralization (IC50) [17]: 15.4 nM
Neutralization (IC50) [18]: 0.4 nM
Neutralization (IC50) [19]: 23 nM
Neutralization (IC50) [20]: 0.5 nM
Neutralization (IC50) [21]: 25.9 nM
Neutralization (IC50) [22]: 66.9 nM
Neutralization (IC50) [23]: 1.4 nM
Neutralization (IC50) [24]: 2.2 nM
Neutralization (IC50) [25]: 14.5 nM
Neutralization (IC50) [26]: 51.8 nM
Neutralization (IC50) [27]: 13.8 nM
Neutralization (IC50) [28]: 33 nM
Neutralization (IC50) [29]: 1 nM
Neutralization (IC50) [30]: 38.2 nM
Neutralization (IC50) [31]: 12.8 nM
Neutralization (IC50) [32]: 1.3 nM
Neutralization (IC50) (HA of B/Lee/40 [33]): 1 nM
Neutralization (IC50) [34]: 18.7 nM
Neutralization (IC50) [35]: 1.3 nM
Neutralization (IC50) [36]: 12.1 nM
Neutralization (IC50) [37]: 1.6 nM
Neutralization (IC50) [38]: 4.4 nM
Neutralization (IC50) [39]: 0.3 nM
Neutralization (IC50) (HA of B/Hong Kong/5/72): 5.7 nM

B2: GL20 IgG (antibody, V domains shown)
VH: QVQLQQSGPGLVKPSQTLSLTCAISGDSVSSYNAVWNWIRQSPSRGLEWLGRTYYRSGWYNDYAESVKSRITINPDTSKNQFSLQLNSVTPEDTAVYYCARSGHITVFGVNVDAFDMWGQGTMVTVSS
VL: DIQMTQSPSSLSASVGDRVTITCRTSQSLSSYTHWYQQKPGKAPKLLIYAASSRGSGVPSRFSGSGSGTDFTLTISSLQPEDFATYYCQQSRTFGQGTKVEIK
EC50 (read off the curve), ADCP % double positive [40]: ~0.04 nM
Neutralization (IC50) [10]: > 1000 nM
Neutralization (IC50) [11]: 8.3 nM
Neutralization (IC50) [12]: 4.4 nM
Neutralization (IC50) [13]: 7 nM
Neutralization (IC50) [14]: 12.9 nM
Neutralization (IC50) [15]: 46.9 nM
Neutralization (IC50) [16]: > 1000 nM
EC50 (read off the curve), ADCP % double positive [41]: ~0.04 nM
